{"source": "paper PMC3629964", "target": "NH2-terminal-PEGylated HZ-TRAIL monomer (human) (UniProt P50591)", "assay": "SEC + other: quantitative Western blot", "data": [{"substance": "6xHis-ILZ-hTRAIL(114-281) (from UniProt P50591 114-281) (ligand)", "values": [{"measurement": "stoichiometry N", "result": 2}]}]}
